First the molecules themselves.
B1: HDV Ribozyme (parent)
chain: GGCCGGCAUGGUCCCAGCCUCCUCGCUGGCGCCGGCUGGGCAACAUUCCGAGGGGACCGUCCCCUCGGUAAUGGCGAAUGGGACCCA

The text below walks through data of the RNAGym collection of RNA variant scans (doi:10.7554/elife.80360).

In the data set the parent is B1. As to the kind of experiment: self-cleavage, relative activity (ratio to wild type); higher = more cleavage; co-transcriptional.
As to GGCCGGCAUGGUCCCAGCCUCCUCGCUGGCGCCGGCUGGGCAACAUUCCGAGGGGACCGACCCCUCGGUAAUGGCUAAUGGGACCCA [U60A G76U], the self-cleavage is 1.01.
As to GGCCGGCAGGGUCCCAGCCUCCUCGCUGGCGCCGCCUGGGCAACAUUCCGAGGGGACCGUCCCCUCGGUAAUGGCGAAUGGGACCCA [U9G G35C], the self-cleavage is 0.0639.
The result for GGCCGGCAUGGUCCCAGCCUCGUCGCUGGCGCCGGCUGGGCAACAUUCCGAGGGGACCGUCCCCUCGGUAAUGGCGAAUGGGACCAA [C22G C86A] reads 0.106.
The result for GGCCGGCAUGGUCCCAGCCUGCUCGCUGGCGCCGGCUGGGCAACAUUCCGAGGGGACCGUCUCCUCGGUAAUGGCGAAUGGGACCCA [C21G C62U] reads 0.
For the variant GGCCGGCAUGGUCCCAGCCUCCUCGCUGGCGCCGGCUGGUCAACAUUCCGAGGGGACAGUCCCCUCGGUAAUGGCGAAUGGGACCCA [G40U C58A], the self-cleavage was 0.67.
The result for UGCCGGCGUGGUCCCAGCCUCCUCGCUGGCGCCGGCUGGGCAACAUUCCGAGGGGACCGUCCCCUCGGUAAUGGCGAAUGGGACCCA [G1U A8G] reads 0.426.
GGCCGGCGUGGUCCCAGCCUCCUCGCUGGCGCCGGCUGGGCAACAUUCCGAAGGGACCGUCCCCUCGGUAAUGGCGAAUGGGACCCA [A8G G52A]: the self-cleavage was 0.719.
The result for GGCCGGCAUGGUCCCCGCCUCCUCGCUGGCGCCGGCUGGGCAACAUUCCGAGGGGACCGUCCGCUCGGUAAUGGCGAAUGGGACCCA [A16C C63G] reads 0.633; that for GGCCGGCAUGCUCCCAGCCUCCUCGCUGGCGCCGGCUGGGCAACAUUCCGAGGGGACCGUCCUCUCGGUAAUGGCGAAUGGGACCCA [G11C C63U], 0.264; that for GGCCGGCAUGGUCCCAGCCUCCUCCCUGGCGCCGGCUGGGCAACAUUCCGAGGGGACCGUCCCCUGGGUAAUGGCGAAUGGGACCCA [G25C C66G], 0.0978.
Consider GGCCGGCAUGGUCCCAGCCUCCUCGCUGGCGCCGGCUGGGCAACCUGCCGAGGGGACCGUCCCCUCGGUAAUGGCGAAUGGGACCCA [A45C U47G], for which the self-cleavage amounted to 0.95.
On to GGCCGGCAUGGUCCCAGCCUCCUCGCAGGCGCCGGCUGGGCAACAUUCCGAGGGGACCGUCCCCUCGGUAAUGGCGACUGGGACCCA [U27A A78C], for which the self-cleavage was determined as 0.0573.
For the variant GGCCAGCAUGGUCCCAGCCUCCUCGCUGGCGCCGGCUGGGCAACAUUCCGAGGGGACCGUCCCCUCGGUAAUGGCGAAUUGGACCCA [G5A G80U], the self-cleavage was determined as 0.0971.
Under GGCCGGCAUGGUCCCAGCCUCCUGGCUGGCGCCGGCUGGGCAACAUUCCGAGGGGACCGUCCCCUCGGCAAUGGCGAAUGGGACCCA [C24G U69C] stands 0.0354.
Under GGCCGGCAUGGUCCCAGCCUCCUCGCUGGCGGCGGCUGGGCAACAUUACGAGGGGACCGUCCCCUCGGUAAUGGCGAAUGGGACCCA [C32G C48A] stands 0.0378.
On to GGCCGGCAUGGUCCCAGCCUCCUCGCUGGCGCCGGCUGGGCAACAUUCCGAGGGGACUGUCCCCUCGAUAAUGGCGAAUGGGACCCA [C58U G68A], for which the self-cleavage is 0.855.
Under GGCCGGCAUGGUCCCAGCCUCCUCGCUGGCGCCGGUUGGGCAACAUUCCGAGGGGACCGUCCCCUCGGUUAUGGCGAAUGGGACCCA [C36U A70U] stands 0.702; under GGCCGGCAUGGUCCCAGCCUCCUCGCUGGCGCCGGCUGGGCAAUAUUCCGAGGGGACCAUCCCCUCGGUAAUGGCGAAUGGGACCCA [C44U G59A], 0.819; under GGCCGGCAUGGUCCCAGCCUCCUCGCUUGCGCCGGCUGGGCAACAUUCCGAGGGGACCGUCCCCUCGGUAAUGGCGAAUGGCACCCA [G28U G82C], 0.0272.
The result for GGCCGGCAUGGUCCCAGCCUCCUCGCUGGCGCCGGCUGGGCAACAUUCCGAGGGUACCGUCCCCUCGGUAAUAGCGAAUGGGACCCA [G55U G73A] reads 0.533; that for GGCCGGCAUGGUCCGAGCCUCCUCGCUGGCGCCGGCUGGGCAACAUUCCGAGGGGGCCGUCCCCUCGGUAAUGGCGAAUGGGACCCA [C15G A56G], 0.712.
GGCCGGCAUGGUCCCAGCCUCCUCGCUGGCGCCGGCUGAGCAACAUUCCAAGGGGACCGUCCCCUCGGUAAUGGCGAAUGGGACCCA [G39A G50A]: the self-cleavage is 0.445.
For the variant GGCCGGCAUGGUCCCAGCCUCCUCGCUGGCCCCGCCUGGGCAACAUUCCGAGGGGACCGUCCCCUCGGUAAUGGCGAAUGGGACCCA [G31C G35C], the self-cleavage came to 0.0978.
As for GGCCGGCAUGGUCCCAGCCUCCUCGCUGGCGGCGGCUGGGCAACAUUCCGAGGGGACCGUCCCCUCGGUAAAGGCGAAUGGGACCCA [C32G U72A], the self-cleavage turned out to be 0.0489.
The result for GGCCGGCAUGGUCCCAGCCUCUUCGCUGGCGCCGGCUGGGCAACAUUCCGAGGGGACCCUCCCCUCGGUAAUGGCGAAUGGGACCCA [C22U G59C] reads 0.566; that for GGCCGGCAGGGUCCCAGCCUCCUCGCUGGCGCCGGCUGGGCAACAUUCCGAGGGGACCGUCCCCUCGGUAAUAGCGAAUGGGACCCA [U9G G73A], 0.665; that for GGCGGGCAUGGUCCCAGCCUCCUCGCUGGCGCCGGCUGGGCAACAUUCCGAGGGGACCGUCCCCUCGGUAAUGGCGAAUGGGAACCA [C4G C84A], 0.225.
Under GGCCGGCAUGGUCCCAGCCUCCUCGCUGGCGCCGGCUGGGCAACACUCCAAGGGGACCGUCCCCUCGGUAAUGGCGAAUGGGACCCA [U46C G50A] stands 0.698.
On to GGCCGGCAUGGUCCCAGCCUCCUUGCUGGCGCCGGCUGAGCAACAUUCCGAGGGGACCGUCCCCUCGGUAAUGGCGAAUGGGACCCA [C24U G39A], for which the self-cleavage is 0.257.
As to GGCCGGCAUGGACCCAGCCUCCUCGCUGGCGGCGGCUGGGCAACAUUCCGAGGGGACCGUCCCCUCGGUAAUGGCGAAUGGGACCCA [U12A C32G], the self-cleavage is 0.225.
The result for GGCCGGCAUGGUCCCAGCCUCCUCGCUGGCGCCGGCUGGGCAACAUUCCGAGGGGACCGUCCCCUCGGUAAUGGCGAAAGGGACCGA [U79A C86G] reads 0.81; that for GGCCGGCAUGGUACCAGCCUCCUCGCUGGCGCCGGCUGGGCAACAUUCCGAGGGGAACGUCCCCUCGGUAAUGGCGAAUGGGACCCA [C13A C57A], 0.185.
